± gives the uncertainty stated by the source.
Experiment: self-splicing fitness, log relative to wild type (ln ratio); higher = more splicing; Tetrahymena group I intron in knt gene, E. coli kanamycin selection, DiMSum; sequences stand for … in CUCUCU…GGAGGGAAAAGUUAUCAGGCAUGCACCUGGUAGCUAGUCUUUAAACCAAUAGAUUGCAUCGGUUUAAAAGGCAAGACCGUCAAAUUGCGGGAAAGGGGUCAACAGCCGUUCAGUACCAAGUCUCAGGGGAAACUUUGAGAUGGCCUUGCAAAGGGUAUGGUAAUAAGCUGACGGACAUGGUCCUAACCACGCAGCCAAGUCCUAAGUCAACAGAUCUUCUGUUGAUAUGGAUGCAGUUCACAGACUAAAUGUCGGUCGGGGAAGAUGUAUUCUUCUCAUAAGAUAUAGUCGGACCUCUCCUUAAUGGGAGCUAGCGGAUGAAGUGAUGCAACACUGGAGCCGCUGGGAACUAAUUUGUAUGCGAAAGUAUAUUGAUUAGUUUUGGAGUACUCGUGGUCG
Procedure, shortened: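 Fitness was computed with DiMSum as the error-weighted combination of replicate fold changes, kanamycin versus none, each normalised to wild type. The library randomised all eight intron nucleotides of the P1ex region, with the intron placed in the knt kanamycin-resistance gene on pET-22b(+) in E. coli BL21(DE3). Six replicate transformations were grown overnight at 37°C or 30°C on LB agar with or without 25 μg/mL kanamycin, plus 100 μg/mL carbenicillin, 50 μM IPTG and 0.2% rhamnose. Pooled colonies were amplicon-sequenced on an Illumina HiSeq 2500.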

Sequence	self-splicing fitness (ln) (30 °C)	self-splicing fitness (ln) (37 °C)
AACUAGCAAUAUUACGUCGA	-0.769 ± 0.087	-0.975 ± 0.09
AACUAGCAAUAUUACGUGAA	-1.86 ± 0.081	-1.51 ± 0.11
AACUAGCAAUAUUACGUUUC	-3.35 ± 0.18	-2.58 ± 0.25
AAGAAGCAAUAUUACGAAGA	-3.29 ± 0.19	-2.15 ± 0.19
AAGAAGCAAUAUUACGAAGU	-2.48 ± 0.16	-2.12 ± 0.21
AAGAAGCAAUAUUACGAGGU	-3.38 ± 0.33	-2.42 ± 0.42
AAGAAGCAAUAUUACGAUCG	-1.23 ± 0.12	-0.674 ± 0.14
AAGAAGCAAUAUUACGCAAG	-2.01 ± 0.13	-1.15 ± 0.13
AAGAAGCAAUAUUACGCCAC	–	-2.7 ± 0.48
AAGAAGCAAUAUUACGCGUC	-2.48 ± 0.27	-1.21 ± 0.3
AAGAAGCAAUAUUACGCUAC	-2.18 ± 0.24	-1.93 ± 0.44
AAGAAGCAAUAUUACGGACG	-0.677 ± 0.071	0.0583 ± 0.11
AAGAAGCAAUAUUACGGCGC	-0.183 ± 0.19	-0.28 ± 0.25
AAGAAGCAAUAUUACGGGAG	-2.62 ± 0.12	-1.47 ± 0.11
AAGAAGCAAUAUUACGUAGU	-2.52 ± 0.16	-1.14 ± 0.15
AAGAAGCAAUAUUACGUAUC	-2.31 ± 0.16	-0.892 ± 0.18
AAGAAGCAAUAUUACGUCCA	-0.641 ± 0.13	0.0432 ± 0.14
AAGAAGCAAUAUUACGUCGC	-3.47 ± 0.19	-2.2 ± 0.16
AAGAAGCAAUAUUACGUGAG	-1.35 ± 0.046	-0.828 ± 0.075

Sequence	self-splicing fitness (ln) (30 °C)	self-splicing fitness (ln) (37 °C)
AAGAAGCAAUAUUACGUGUC	-3.38 ± 0.15	-2.09 ± 0.17
AAGAAGCAAUAUUACGUGUU	-2.15 ± 0.13	-1.61 ± 0.13
AAGAAGCAAUAUUACGUUGC	-4.64 ± 0.31	-3.65 ± 0.32
AAGAAGCAAUAUUACGUUUU	-3.3 ± 0.11	-1.33 ± 0.091
AAGCAGCAAUAUUACGAACC	-2.26 ± 0.14	-0.526 ± 0.15
AAGCAGCAAUAUUACGACGG	-2.19 ± 0.088	-1.17 ± 0.09
AAGCAGCAAUAUUACGACUG	-2.67 ± 0.12	-1.8 ± 0.14
AAGCAGCAAUAUUACGAUCC	-1.73 ± 0.24	0.0481 ± 0.24
AAGCAGCAAUAUUACGCACU	0.0285 ± 0.094	0.781 ± 0.12
AAGCAGCAAUAUUACGCAGG	-2.34 ± 0.14	-1.13 ± 0.11
AAGCAGCAAUAUUACGCCAU	-2.13 ± 0.19	-1.69 ± 0.28
AAGCAGCAAUAUUACGCCCG	-0.844 ± 0.21	1.38 ± 0.32
AAGCAGCAAUAUUACGCCUA	0.0257 ± 0.11	-0.183 ± 0.13
AAGCAGCAAUAUUACGCUAC	-2.96 ± 0.24	-2.31 ± 0.24
AAGCAGCAAUAUUACGCUAU	-2.17 ± 0.14	-0.814 ± 0.13
AAGCAGCAAUAUUACGCUCU	-1.55 ± 0.098	-0.549 ± 0.11
AAGCAGCAAUAUUACGCUGA	-3.07 ± 0.11	-1.98 ± 0.11
AAGCAGCAAUAUUACGCUUA	-1.9 ± 0.15	-1.24 ± 0.14
AAGCAGCAAUAUUACGCUUU	-4.53 ± 0.2	-2.87 ± 0.22

Source: the supplement of paper PMC7877785
